According to the DeepSol protein solubility set:

assay: soluble on expression in E. coli; label from the status in PepcDB or PDB records

Sequence | soluble on expression in E. coli
MSEDGLKVSVLASGSTGNVTYIETPERKVLVDAGLSGKKIAGLMDSVGRDISEVDSLFVTHEHSDHIQSVGVLARKYGIDIYANQGTWDAIGGKIGKVPTEQKFIFDPNTTKSLDDLDIESFSVSHDAAEPQFYEFHHAGKSFVILTDTGYVSDRIAGTIRNADGYLFEVNHDTEMLRMGGYPWPLKQRIMGDHGHLSNEDGANALMDVIGNRTKKIYLGHLSLHNNMKELAHLTVTSMMQNHDLAVGHDFEILDTDHKIADPLTLILEHHHHHH | soluble
MSEFTQDTVQKPIDELVTWVKQYDFSLNLPTERLAFLLAIAVLSNERFDEELGEGELHDAFAIVTRLFAESGEASAFRANNAINDLVKQRLLSRFTSEMTEGASIYRLTPLAIGITDYYVRHREFSKLKLSIQLSMVADEMAKAVESAQQGGSVAHWRKNVFGVLKYSVSEIFDRIDLNQRVMDEQQQSVKEQIADLLNKDWRDAINNCEALLSETSATLRELQDTLQAAGDELQTQILDIQECVYGDLELDFIEETLSALQMKLDRITSWGQQSIDLWIGYDRHVHKFIRTAIDMDQNRAFSQRLRQSMNDYFEQPWYLTYADAERLSDLRDETLTLRDEEVTGHVPTEVEYEELQQVNDELAQRIGDMLKVHKEQGAAIDLALVLRDYLASHPRTHHFDLARMVVDQAVRLGYSESDYRAIQPDWTAINDFGAKVQANVIDRYLEHHHHHH | soluble
MSEGSNVLVSIILVNYNGADILPDCLNSIDKFISKDNCEILLVDNASQDNSYELVAQDFPDVKIVRLPKNYGFGAGNNAGAKIAKGKFLLLLNTDTILTTNILPHLIDLMRENPDVGIIGTKLVFPDETFQISFAYTIGIKGEYKSRKLHEYAEDKSKLNSLEQEFNTIKEVDIVVGAALFIRADLFHSVGGFDEKFFIYFEDADLCRRVQNQGYKILYTPQVSLIHIRGHSMKKNANATVLEHHHHHH | not soluble
MSEISVTQTLDTLGLRCPEPVMLVRKNIRHLNDGEILLIIADDPATTRDIPSFCQFMDHTLLQCEVEKPPFKYWVKRGK | not soluble
MSEITTLQPSLLWKWFDQICAIPHPSHYEDTLANFIVNWAKEKHFFVERDEVGNVLIRKPATKGMENHTPVVLQAHLDMVPQANEGNPHDFTKDPIQPYIDGEWVKARGTTLGSDNGIGLASTLAVLESNDLAHPPLEVLLTMTEETGMDGAKGLRHNWLQSEILINTDTEEIGEIYIGCAGGINANFEIPVQYETNTFEHSAQITLKGLRGGHSGGDIHTGRANAIKVLARVLAKLSQNQPHFALSEIRGGSIRNAIPREAAAVLAFNGDVKTIESAVENLAVVLKEELAIAEPNFTLFVESAEKAPTVFTAQSTQTVINALNVLPNGVIRNSDVVKNVVESSLSVGVLKTEGNVVKSTILVRSLIESGKYYVTEMLSSLAILANAKVEFSAPYPGWQPVNDSTILDVTRKHYAEVLGEQPVVKVIHAGLECGLLKEHYPNIEMISVGPTIRNAHSPDEKVEIATVQTYWDLLTRVLADIPAK | soluble
MSELGAKYQQLQNELEEFIVARQKLETQLQENKIVNEEFDQLEEDTPVYKLTGNVLLPVEQSEARTNVDKRLEFIETEITRCEKNIRDKQEELEKMRSELIKLNNTAASTGPGR | soluble
MSELPPLNTDTIWGILNDQIDDATVMQLVWYYLGYRYDATTEKWDNNAVPSEWRDEYPEPPNFLESRPATMKLTRSIPKQYKQITKEKLGFKGYKIGTFTPRETRRATSANWLLSYLQQQIDQGK | soluble
MSELRALIREILVEELAALRAAPAATPACEMVDVHSDEALMAFARDLLGRANDPEFVRCVQSGQHRFTLAPTVAQPPGQRPAPAASFTLVASAPAEAPRFEKALVTERDVAAIPRDQSRIRLARNTRLTPLASDELRRRGIRIERTQK | not soluble
MSEMSVIIEFSIVPMGEVSISKYVAEIIKLVRDRGVKYQLTPMGTILEVNSIEEGLSIIRDAHELMFKLGSKRVLTTIRIDERRDKARTMEDKVKSVMEKVESVRE | soluble
MSENLTMSELMDSFELKHFHKGEIVKGKVISVKNDEIIVNIGHFADGVVPRNEISNDKNFDINSINVDDDIFVMVLSGDDGEGNVLLSKKRADAIKVCDDLKEAFEEEKSIKVSLKEVVKGGIVGDFNGLRVFMPASQCAGRRIENLEELVGKTLEVRVIEFNKENRKVVVSRRVIDEEIRNNEKKALWSSIKEGEKRKGKVTRLAKFGAFVDIGGVEGLVHLSDMSWSRVHKPEEVVSVGDEVEVFVSEVDMDRERIALSLKDVIKNPWETLEGLKVGNVVLGKVTNFIKVGAFVEVLPGIEGLVHISEITDENIAKPSDILELGQEVKVKILNIDDENKKMSLSIKDAVETSNEYMQYNDEEEGYSLADLFKGLNLLEHHHHHH | soluble
MSFDGFFLHHLTKELQEQILWGRIQKVNQPFEQELVLTIRNNRQNYKLLLSAHPVFGRVQLTKTDFQNPQSPNTFTMIMRKYLQGALIENIEQIENDRILEMSISNKNEIGDQIKVTMIIEIMGKHSNIILLDKNEGKITESIKHIGFTQNSYRTILPGSRYLAPPKIQAQNPFTISDETLFEILQTEDLAANNLQKLFQGLGRDTAAELSQRLKTDTFKNFKLFFDSPTSPTLTEKSFTAITFSNSQETFGSLSDLLDYFYQDKAERDRIAQQASDLIHRIQNELEKNKKKLKKQEQELQDTDKAEEFRQKGELLTTYLNQVPNNQDSVELDNYYTGQKVSIPLNKALTPSQNAQRYFKKYQKLKEAVKHLGSLISETKATIQYLESVDNALNQASLSEISEIREELVQTGFVKRRHREKIQKRKK | not soluble
MSFDREEDQKLKFKTSKKLKVSSTFESMNLKDDLLRGIYSYGFEAPSSIQSRAITQIISGKDVIAQAQSGTGKTATFTIGLLQAIDLRKKDLQALILSPTRELASQIGQVVKNLGDYMNVNAFAITGGKTLKDDLKKMQKHGCQAVSGTPGRVLDMIKKQMLQTRNVQMLVLDEADELLSETLGFKQQIYDIFAKLPKNCQVVVVSATMNKDILEVTRKFMNDPVKILVKRDEISLEGIKQYVVNVDKEEWKFDTLCDIYDSLTITQCVIFCNTKKKVDWLSQRLIQSNFAVVSMHGDMKQEERDKVMNDFRTGHSRVLISTDVWARGIDVQQVSLVINYDLPEIIENYIHRIGRSGRFGRKGVAINFITKADLAKLREIEKFYSIKINPMPANFAELS | soluble
MSFEYNEKVLDHFLNPRNVGVLEDANGVGQCGNPACGDAMLFTIKVNPENDVIEDVRFKTFGCGSAIAVSSMLTEMVKGKPIQYALNLTYKDIFEELGGLPPQKIHCTNLGLETLHVAIKDYLMKQGRVEEASKIPDCYEEEEEQEESKEFEFLSGTLEHHHHHH | soluble
MSFGKIVVFLVLVLVQLIHCTRFTAPSLDRTIYYRNTPPDPFGHYSFEFQTTNGITTKGAGNENGAVGVVQFVSPEGIPVTFSYVADANGYQPTGDHIPAIPLHVIRQLEYIRTHPPVDEIRSRRWLEHHHHHH | not soluble
MSFKVISTGPQAIFQDRGRFGFASAGVGTSGSFDRLSAARANHALGNDPNATVVEILLGGFEVEALHTTSIVFTGTEAEVMVRTAGGQSKNATTNTIIDVAAGERIRVEPATYGMRAYFAARGGFAVEKTLGSASTDLISHMGPRPIEPGDVIDVATDIADSQWWPKLRQLPTLWKRMPTETLTVIRGPRDKWFTQESLNNFFTQVFTVSNDSNRIGLRMHSSEPIQHRVEGELKSEGMVRGSIQIPPGGNPVVFGPDHPVTGGYPVIAVLTSRSCDRSAQLLPGDKVRFKLL | not soluble
